Reference: article PMC2824011

Substrate: O=c1ccc2nc3ccc(O[C@H]4O[C@H](CO)[C@@H](O)[C@H](O)[C@@H]4O)cc3oc-2c1
Assay: continuous fluorometric kinetic assay of purified enzyme
Type: biochemical, Drosophila melanogaster

B1: Golgi α-mannosidase II (dGMII) (Drosophila melanogaster) (protein)
chain: DDPIRPPLKVARSPRPGQCQDVVQDVPNVDVQMLELYDRMSFKDIDGGVWKQGWNIKYDPLKYNAHHKLKVFVVPHSHNDPGWIQTFEEYYQHDTKHILSNALRHLHDNPEMKFIWAEISYFARFYHDLGENKKLQMKSIVKNGQLEFVTGGWVMPDEANSHWRNVLLQLTEGQTWLKQFMNVTPTASWAIDPFGHSPTMPYILQKSGFKNMLIQRTHYSVKKELAQQRQLEFLWRQIWDNKGDTALFTHMMPFYSYDIPHTCGPDPKVCCQFDFKRMGSFGLSCPWKVPPRTISDQNVAARSDLLVDQWKKKAELYRTNVLLIPLGDDFRFKQNTEWDVQRVNYERLFEHINSQAHFNVQAQFGTLQEYFDAVHQAERAGQAEFPTLSGDFFTYADRSDNYWSGYYTSRPYHKRMDRVLMHYVRAAEMLSAWHSWDGMARIEERLEQARRELSLFQHHDGITGTAKTHVVVDYEQRMQEALKACQMVMQQSVYRLLTKPSIYSPDFSFSYFTLDDSRWPGSGVEDSRTTIILGEDILPSKHVVMHNTLPHWREQLVDFYVSSPFVSVTDLANNPVEAQVSPVWSWHHDTLTKTIHPQGSTTKYRIIFKARVPPMGLATYVLTISDSKPEHTSYASNLLLRKNPTSLPLGQYPEDVKFGDPREISLRVGNGPTLAFSEQGLLKSIQLTQDSPHVPVHFKFLKYGVRSHGDRSGAYLFLPNGPASPVELGQPVVLVTKGKLESSVSVGLPSVVHQTIMRGGAPEIRNLVDIGSLDNTEIVMRLETHIDSGDIFYTDLNGLQFIKRRRLDKLPLQANYYPIPSGMFIEDANTRLTLLTGQPLGGSSLASGELEIMQDRRLASDDERGLGQGVLDNKPVLHIYRLVLEKVNNCVRPSELHPAGYLTSAAHKASQSLLDPLDKFIFAENEWIGAQGQFGGDHPSAREDLDVSVMRRLTKSSAKTQRVGYVLHRTNLMQCGTPEEHTQKLDVCHLLPNVARCERTTLTFLQNLEHLDGMVAPEVCPMETAAYVSSHSS
In the case of B1, the Km is reported as 200 (±73) μM.
